The target of one test is HLA-A*26:02. Kind of test: IEDB peptide-MHC binding, purified MHC/direct/fluorescence; filed as Kd, often an IC50 or EC50 that approximates it; ≥ and ≤ were set here for values at or beyond the usual limits of such assays. As to conditions: source organism: Geobacillus sp. WCH70.
In the next test the target is HLA-B*57:01. As to the kind of experiment: IEDB peptide-MHC binding, purified MHC/competitive/radioactivity; filed as Kd, often an IC50 or EC50 that approximates it; ≥ and ≤ were set here for values at or beyond the usual limits of such assays. The following applies: source organism: Dengue virus 1 Brazil/97-11/1997.
Another test concerns the target HLA-A*80:01. Kind of test: IEDB peptide-MHC binding, purified MHC/direct/fluorescence; filed as Kd, often an IC50 or EC50 that approximates it; ≥ and ≤ were set here for values at or beyond the usual limits of such assays.
The next test deals with HLA-C*08:02. The test is described as above.
The target of the next test is HLA-C*07:02. The test is described as above. The following applies: source organism: Mycobacterium tuberculosis str. Haarlem.
The next test deals with HLA-C*03:03. The description is as above.
The target in test [1] is HLA-A*01:01. As to the kind of experiment: IEDB peptide-MHC binding, purified MHC/competitive/fluorescence; ≥ and ≤ were set here for values at or beyond the usual limits of such assays.
The target of test [2] is HLA-B*07:02. Described as above.
In the next test the target is HLA-A*32:15. As to the kind of experiment: IEDB peptide-MHC binding, purified MHC/competitive/fluorescence; filed as Kd, often an IC50 or EC50 that approximates it; ≥ and ≤ were set here for values at or beyond the usual limits of such assays. The following applies: source organism: Toxoplasma gondii.
In another test the target is HLA-B*15:42. The test is described as above. The following applies: source organism: Toxoplasma gondii.
A further test deals with HLA-A*68:23. The description is as above. As to conditions: source organism: Toxoplasma gondii.
A further test has as its target HLA-A*03:01. The description is as above. As to conditions: source organism: Toxoplasma gondii.
In a further test the target is HLA-B*83:01. The test is described as above. As to conditions: source organism: Toxoplasma gondii.
A further test addresses HLA-B*45:06. Described as above. The following applies: source organism: Toxoplasma gondii.
A further test has as its target HLA-B*48:01. Described as above.
In a further test the target is HLA-C*14:02. Kind of test: IEDB peptide-MHC binding, purified MHC/direct/fluorescence; filed as Kd, often an IC50 or EC50 that approximates it; ≥ and ≤ were set here for values at or beyond the usual limits of such assays. The following applies: source organism: Listeria monocytogenes EGD-e.
The next test concerns the target HLA-C*12:03. The test is described as above.
A further test has as its target HLA-C*06:02. The test is described as above. As to conditions: source organism: Listeria monocytogenes EGD-e.
In a further test the target is HLA-C*15:02. The test is described as above. As to conditions: source organism: Listeria monocytogenes EGD-e.
Test [3] addresses HLA-B*07:02. Kind of test: IEDB peptide-MHC binding, purified MHC/competitive/fluorescence; filed as Kd, often an IC50 or EC50 that approximates it; ≥ and ≤ were set here for values at or beyond the usual limits of such assays.
Another test concerns the target HLA-B*15:01. The description is as above. As to conditions: source organism: Shigella flexneri 2a str. 301.
In another test the target is HLA-B*35:01. Described as above. The following applies: source organism: Shigella flexneri 2a str. 301.
Test [4] concerns the target HLA-A*01:01. Kind of test: IEDB peptide-MHC binding, purified MHC/direct/fluorescence; filed as Kd, often an IC50 or EC50 that approximates it; ≥ and ≤ were set here for values at or beyond the usual limits of such assays.
A further test has as its target HLA-A*26:03. The description is as above. The following applies: source organism: Cryptosporidium parvum Iowa II.
A further test concerns the target HLA-A*02:17. Kind of test: IEDB peptide-MHC binding, purified MHC/competitive/radioactivity; filed as Kd, often an IC50 or EC50 that approximates it; ≥ and ≤ were set here for values at or beyond the usual limits of such assays. The following applies: source organism: Dengue virus 1 Singapore/S275/1990.
The target in a further test is HLA-A*24:02. The test is described as above. As to conditions: source organism: Dengue virus 1 Brazil/97-11/1997.
The target in a further test is HLA-A*02:03. Described as above. The following applies: source organism: Dengue virus 1 Brazil/97-11/1997.
In another test the target is HLA-A*02:11. As to the kind of experiment: IEDB peptide-MHC binding, purified MHC/direct/fluorescence; filed as Kd, often an IC50 or EC50 that approximates it; ≥ and ≤ were set here for values at or beyond the usual limits of such assays. The following applies: source organism: dengue virus type 1.
For the next test, the target named is HLA-A*02:19. The test is described as above. The following applies: source organism: dengue virus type 1.
A further test deals with HLA-A*02:12. The test is described as above. As to conditions: source organism: dengue virus type 1.
The mark [5] stands for this setting: source organism: dengue virus type 1.
The mark [6] stands for this setting: source organism: Mycobacterium tuberculosis str. Haarlem.
[7] abbreviates: source organism: Zaire ebolavirus.
Setting [8] is: source organism: Listeria monocytogenes EGD-e.
Where [9] appears, read: source organism: West Nile virus.
Where [10] appears, read: source organism: Cryptosporidium parvum Iowa II.
[11] abbreviates: source organism: Vibrio parahaemolyticus.

As a reminder, the Kd is the concentration at which binding is half-saturated. One may read the IC50 as the concentration that inhibits the measured activity by half. The low end stands for greater potency, the high end for weaker potency.

The sequence FTWPWMKLF had a dissociation constant (Kd) with HLA-A*26:02 of 469 nM.
As for ESDPEGALW, the Kd with HLA-B*57:01 is 391 nM; with HLA-A*80:01 (setting [5]) it was at least 20000 nM.
As for YVYPDNLPV, the Kd with HLA-C*08:02 (setting [6]) is 78 nM; with HLA-C*07:02, 2170 nM; with HLA-C*03:03 (setting [6]), 2 nM.
For the sequence PDDGSYGEY, the half-maximal inhibitory concentration (IC50) in the test with HLA-A*01:01 [1] (setting [7]) is at least 277000 nM.
In turn, GPCPGDYAF showed an IC50 with HLA-B*07:02 [2] (source organism: Sudan ebolavirus) of at least 722000 nM.
On to MTMLIKAFK, for which the Kd in the test with HLA-A*32:15 is 194 nM; in the test with HLA-B*15:42 it was at least 5000 nM; with HLA-A*68:23, 4.5 nM; with HLA-A*03:01, 7.7 nM; with HLA-B*83:01, at least 5000 nM; with HLA-B*45:06, at least 5000 nM.
Take APDGIRGFP: the IC50 with HLA-B*07:02 [2] (setting [7]) was determined as 23400 nM. This lies in the double-digit micromolar range.
In the case of RGDLETLGY, the IC50 with HLA-A*01:01 [1] (source organism: Vaccinia virus WR) came to 9250 nM.
Turning to TSDGKEYTY, the IC50 in the test with HLA-A*01:01 [1] (setting [7]) came out at 3450 nM.
RMMGKTNPL: the Kd with HLA-B*48:01 (setting [8]) is 97.4 nM; with HLA-C*14:02, at most 1 nM; with HLA-C*12:03 (setting [8]), 156 nM; with HLA-C*06:02 it was at least 20000 nM; with HLA-C*15:02, 16 nM.
Consider MPRQKIIGPL, for which, in the test with HLA-B*07:02 [3] (source organism: Influenza A virus (A/Swine/Colorado/23619/99(H3N2))), the Kd worked out at 6.6 nM.
With KPVGWAMSF, the Kd with HLA-B*07:02 [3] (source organism: Shigella flexneri 2a str. 301) was found to be 11.9 nM; in the test with HLA-B*15:01, 4000 nM; with HLA-B*35:01 it was 0.4 nM.
In the case of MSPHRVPNY, the Kd with HLA-A*80:01 (setting [9]) and with HLA-A*01:01 [4] (setting [9]) was at least 20000 nM in each case.
The sequence ETRYSWAIL showed a Kd with HLA-A*26:03 of 454 nM.
For the sequence YMPSVVETL, the Kd is 14.6 nM with HLA-A*02:17; 1010 nM with HLA-A*24:02; 15 nM in the test with HLA-A*02:03; at least 20000 nM in the test with HLA-C*08:02 (setting [5]); at most 1 nM with HLA-A*02:11; 36 nM with HLA-A*02:19. In addition, the Kd with HLA-A*02:12 was 9 nM.
Take WMYNIQPYL: the Kd amounted to 34.7 nM in the test with HLA-B*48:01 (setting [10]), 454 nM with HLA-C*12:03 (setting [10]) and 83 nM with HLA-C*03:03 (setting [10]).
Turning to MTPGRGLSK, the Kd with HLA-A*80:01 (setting [11]) and in the test with HLA-A*01:01 [4] (setting [11]) was at least 20000 nM throughout.

The values above are taken from the Immune Epitope Database (IEDB).
